The record followed here is paper PMC6145688.

This experiment concerns the target Recombinant active autotaxin-β (ATXβ), Q13822. The experiment can be described thus: cell adhesion assay; plates coated with recombinant ATXβ; cells in HEPES-buffered Tyrode solution with 2 mM Mn2+, rested 1 h at 37° C, seeded 1 h, attached cells counted; cells preincubated 1 h with blocking antibodies (10 µg/mL) or peptides (50 µg/mL). To be noted: remark: other sources report otherwise.

B1: Integrin αvβ3, P06756 31-1048; P05106 27-788 (receptor)
chain 1: FNLDVDSPAEYSGPEGSYFGFAVDFFVPSASSRMFLLVGAPKANTTQPGIVEGGQVLKCDWSSTRRCQPIEFDATGNRDYAKDDPLEFKSHQWFGASVRSKQDKILACAPLYHWRTEMKQEREPVGTCFLQDGTKTVEYAPCRSQDIDADGQGFCQGGFSIDFTKADRVLLGGPGSFYWQGQLISDQVAEIVSKYDPNVYSIKYNNQLATRTAQAIFDDSYLGYSVAVGDFNGDGIDDFVSGVPRAARTLGMVYIYDGKNMSSLYNFTGEQMAAYFGFSVAATDINGDDYADVFIGAPLFMDRGSDGKLQEVGQVSVSLQRASGDFQTTKLNGFEVFARFGSAIAPLGDLDQDGFNDIAIAAPYGGEDKKGIVYIFNGRSTGLNAVPSQILEGQWAARSMPPSFGYSMKGATDIDKNGYPDLIVGAFGVDRAILYRARPVITVNAGLEVYPSILNQDNKTCSLPGTALKVSCFNVRFCLKADGKGVLPRKLNFQVELLLDKLKQKGAIRRALFLYSRSPSHSKNMTISRGGLMQCEELIAYLRDESEFRDKLTPITIFMEYRLDYRTAADTTGLQPILNQFTPANISRQAHILLDCGEDNVCKPKLEVSVDSDQKKIYIGDDNPLTLIVKAQNQGEGAYEAELIVSIPLQADFIGVVRNNEALARLSCAFKTENQTRQVVCDLGNPMKAGTQLLAGLRFSVHQQSEMDTSVKFDLQIQSSNLFDKVSPVVSHKVDLAVLAAVEIRGVSSPDHVFLPIPNWEHKENPETEEDVGPVVQHIYELRNNGPSSFSKAMLHLQWPYKYNNNTLLYILHYDIDGPMNCTSDMEINPLRIKISSLQTTEKNDTVAGQGERDHLITKRDLALSEGDIHTLGCGVAQCLKIVCQVGRLDRGKSAILYVKSLLWTETFMNKENQNHSYSLKSSASFNVIEFPYKNLPIEDITNSTLVTTNVTWGIQPAPMPVPVWVIILAVLAGLLLLAVLVFVMYRMGFFKRVRPPQEEQEREQLQPHENGEGNSET
chain 2: GPNICTTRGVSSCQQCLAVSPMCAWCSDEALPLGSPRCDLKENLLKDNCAPESIEFPVSEARVLEDRPLSDKGSGDSSQVTQVSPQRIALRLRPDDSKNFSIQVRQVEDYPVDIYYLMDLSYSMKDDLWSIQNLGTKLATQMRKLTSNLRIGFGAFVDKPVSPYMYISPPEALENPCYDMKTTCLPMFGYKHVLTLTDQVTRFNEEVKKQSVSRNRDAPEGGFDAIMQATVCDEKIGWRNDASHLLVFTTDAKTHIALDGRLAGIVQPNDGQCHVGSDNHYSASTTMDYPSLGLMTEKLSQKNINLIFAVTENVVNLYQNYSELIPGTTVGVLSMDSSNVLQLIVDAYGKIRSKVELEVRDLPEELSLSFNATCLNNEVIPGLKSCMGLKIGDTVSFSIEAKVRGCPQEKEKSFTIKPVGFKDSLIVQVTFDCDCACQAQAEPNSHRCNNGNGTFECGVCRCGPGWLGSQCECSEEDYRPSQQDECSPREGQPVCSQRGECLCGQCVCHSSDFGKITGKYCECDDFSCVRYKGEMCSGHGQCSCGDCLCDSDWTGYYCNCTTRTDTCMSSNGLLCSGRGKCECGSCVCIQPGSYGDTCEKCPTCPDACTFKKECVECKKFDRGALHDENTCNRYCRDEIESVKELKDTGKDAVNCTYKNEDDCVVRFQYYEDSSGKSILYVVEEPECPKGPDILVVLLSVMGAILLIGLAALLIWKLLITIHDRKEFAKFEEERARAKWDTANNPLYKEATSTFTNITYRGT
For the molecule B1, the percent inhibition of DU145 cell adhesion on ATXβ by LM609 (anti-αvβ3) turned out to be 60% and the percent inhibition of KHOS cell adhesion on ATXβ by LM609 (anti-αvβ3) is 15%.
